Assay results published in US20210253725A1 (BIONTECH, published 2021).
Blank lines part the entries; values can stand above or below the binder they belong to.

Assays:
[1] = biological target: T1, CD27 protein (His-tagged, Sino Biological Inc. 10039-H08B1) (human, UniProt P26842 20-192); assay: ELISA on coated His-tagged CD27
T1 construct: bought; coated onto ELISA plates; also called human CD27; recombinant protein; not shown: His tag
T1 sequence (looked up): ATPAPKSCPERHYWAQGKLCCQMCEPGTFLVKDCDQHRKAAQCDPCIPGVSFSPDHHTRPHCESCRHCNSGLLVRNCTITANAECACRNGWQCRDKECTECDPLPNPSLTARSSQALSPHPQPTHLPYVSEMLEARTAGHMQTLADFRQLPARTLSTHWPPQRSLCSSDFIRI

[2] = biological target: T2, CD27 expressed on the cell surface (HT1080_CD27 cells) (human, UniProt P26842 20-260); assay: cellular binding assay, HT1080_CD27 cells
T2 construct: whole, on cells; also called K562_CD27
T2 sequence (looked up): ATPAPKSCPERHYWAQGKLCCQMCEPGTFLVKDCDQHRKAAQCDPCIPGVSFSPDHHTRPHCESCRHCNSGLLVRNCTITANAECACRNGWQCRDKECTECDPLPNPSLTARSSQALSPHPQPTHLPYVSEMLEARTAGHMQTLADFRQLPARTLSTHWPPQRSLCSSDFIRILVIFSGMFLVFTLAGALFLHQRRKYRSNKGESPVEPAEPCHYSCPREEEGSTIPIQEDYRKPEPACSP

[3] = biological target: T2, CD27 expressed on the cell surface …; assay: cell-based or functional assay
Further: test concentration or dose not given here.

B1: P018.S.03.A.H05 (antibody, V domains shown)
VH: QSLEESGGDLVKPGASLTLTCTASGFSFSDRHYMCWVRQAPGKGLEWIGSIYTGKDSIDYASWAKGRFTISKTSSTTVTLQMTSLTAADTATYFCARDLLYGSSSGYLHTWGPGTLVTVSS
VL: DIVMTQTPSSVSEPVGGTVTIKCQASHNIYSNLAWYQQKLGQPPKLLIYYASTLASGVPSRFKGSGSGTEYTLTISDLESDDAATYYCQSAYYGSIDITFGGGTEVVAQ
notes: V regions on human Ig constant parts; also called AB27_63
ELISA [abs. corr.] [1]: 3.36 abs. corr.
Cellular binding assay [RFU] [2]: 294 RFU
IL-8, cross-linked by F(ab')2 fragment [abs. corr.] [3]: 1.39 abs. corr.
IL-8 [abs. corr.] [3]: 0.401 abs. corr.

B2: P018.S.02.A.G03 (antibody, V domains shown)
VH: QSVEESGGRLVTPGTPLTLTCTVSGFSLSSYVMSWVRQAPGKGLEWIGYIDYGGTAYYASWAKGRFTISKTSTTVELKITSPTIEDTATYFCARGGYGGYILVTGLWGPGTLVTVSS
VL: DIVMTQTPASVSEPVGGTVTIKCQASQTIISYLSWYQQKPGQPPKLLIYGASTLASGVPSRFKGSGSVTEYTLTISDLESADAATYYCQTYYGGGPFGNGFGGGTEVVVK
notes: V regions on human Ig constant parts; also called AB27_38
ELISA [abs. corr.] [1]: 3.13 abs. corr.
Cellular binding assay [RFU] [2]: 357 RFU
IL-8, cross-linked by F(ab')2 fragment [abs. corr.] [3]: 1.48 abs. corr.
IL-8 [abs. corr.] [3]: -0.061 abs. corr.

B3: P018.S.02.A.F06 (antibody, V domains shown)
VH: QSVEESGGRLVTPGTPLTLTCTVSGFSLSSYVMSWVRQAPGKGLEWIGYIDYGGTPYYASWAKGRFTISKTSTTVELKITSPTIEDTATYFCARGGYGGYILVTGLWGPGTLVTVSS
VL: DVVMTQTPASVSEPVGGTVTIKCQASQSISSYCSWYQQRPGQPPKLLIYGASTLASGVPSRFKGSGSGTEYTLTISDLESADAATYYCQTYYGGGPFGNGFGGGTEVVVK
notes: V regions on human Ig constant parts; also called AB27_36
ELISA [abs. corr.] [1]: 3.24 abs. corr.
Cellular binding assay [RFU] [2]: 294 RFU
IL-8, cross-linked by F(ab')2 fragment [abs. corr.] [3]: 1.73 abs. corr.
IL-8 [abs. corr.] [3]: 0.094 abs. corr.

B5: P018.S.04.A.F04 (antibody, V domains shown)
VH: QSVEESGGRLVTPGTPLTLTCTVSGFSLSNYAMSWVRQAPGKGLEWIGIIYASGTTYYARWAKGRFTISRTSTTVDLKISSPTTEDTATYFCAREYDSYDYAYGSSIYAFDPWGPGTLVTVSS
VL: AYDMTQTPSSVSAAVGGTVTIKCQASESIYSNLAWYQQKPGQRPKLLIYRASTLASGVSSRFKGSGSGTQFTLSISGVESADAATYYCQQGYSSSNVDNVFGGGTEVVVK
notes: V regions on human Ig constant parts; also called AB27_77
ELISA [abs. corr.] [1]: 3.35 abs. corr.
Cellular binding assay [RFU] [2]: 320 RFU
IL-8, cross-linked by F(ab')2 fragment [abs. corr.] [3]: 2.49 abs. corr.
IL-8 [abs. corr.] [3]: 1.6 abs. corr.

The next lines start with the values.

ELISA [abs. corr.] [1]: 3.36 abs. corr.
Cellular binding assay [RFU] [2]: 314 RFU
IL-8, cross-linked by F(ab')2 fragment [abs. corr.] [3]: 1.4 abs. corr.
IL-8 [abs. corr.] [3]: 0.274 abs. corr.
B4: P018.S.09.A.H04 (antibody, V domains shown)
VH: QSVEESGGRLVTPGTPLTLTCTVSGFSLSSYVMSWVRQAPGKGLEWIGYSDYGGTAYYANWAKGRFTISKTSTTVELKITSPTIEDTATYFCARGGYDGYLLVTGLWGPGTLVTVSS
VL: DIVMTQTPASVSEPVGGTVTIKCQASQSISSYLAWYQQKPGQPPKLLIYSASTLASGVSSRFKGSGSGTEYTLTISDLESADAATYYCQTYYGGGPFGNGFGGGTEVVVK
notes: V regions on human Ig constant parts; also called AB27_161

ELISA [abs. corr.] [1]: 3.35 abs. corr.
Cellular binding assay [RFU] [2]: 332 RFU
IL-8, cross-linked by F(ab')2 fragment [abs. corr.] [3]: 1.33 abs. corr.
IL-8 [abs. corr.] [3]: 0.813 abs. corr.
B6: P018.S.05.A.E04 (antibody, V domains shown)
VH: QEQLEESGGDLVKPEGSLTLTCTASGFSFSSYWICWVRQAPGKGLEWIACIATHSGTDFYASWAKGRFTISKTSSTTVTLQMTSLTAADTATYFCARDPYGFNGDYFSLWGPGTLVTVSS
VL: ALVMTQTPASVSAAVGGTVTINCQASQSVYNSNYLSWYQQKPGQPPKLLIYKASTLASGVPSRFKGSGSGTQFTLTISGVESDDAATYYCAGYKSYTNDDNGFGGGTEVVVK
notes: V regions on human Ig constant parts; also called AB27_90

ELISA [abs. corr.] [1]: 3.35 abs. corr.
Cellular binding assay [RFU] [2]: 372 RFU
IL-8, cross-linked by F(ab')2 fragment [abs. corr.] [3]: 1.07 abs. corr.
IL-8 [abs. corr.] [3]: 0.218 abs. corr.
B7: P018.S.07.A.B06 (antibody, V domains shown)
VH: QEQLVESGGDLVKPGTSLTLTCKASGLDFSSTPYMCWVRQAPGKGLEWIACIYTGSVIYTYYASWAKDRFTISKISSTSVTLQMTSLTVADTATYFCARSPAGYAAYGYGGFNLWGPGTLVTVSS
VL: AIEMTQTPFSVSAAVGGTVTINCQASQNIYNNLAWYQQKPGQPPKLLIYGASTLESGVPSRFEGSGSGTEYTLTISDLESDDAATYYCQSAYYSSSATDMAFGGGTEVVVK
notes: V regions on human Ig constant parts; also called AB27_118

ELISA [abs. corr.] [1]: 3.35 abs. corr.
Cellular binding assay [RFU] [2]: 351 RFU
IL-8, cross-linked by F(ab')2 fragment [abs. corr.] [3]: 1.11 abs. corr.
IL-8 [abs. corr.] [3]: 0.539 abs. corr.
B8: P018.S.05.A.C06 (antibody, V domains shown)
VH: QSLEESGGRLVTPGTPLTLTCTASGFSLSNYYITWVRQAPGEGLEWIGTISTAGNTYFASWAKGRFTISRTSTTVDLKMTSPTTEDTATYFCARDGAGDSNYYRNLWGQGTLVTVSS
VL: DIVLTQTPASVEAAVGGTVTIKCQASQSIDRFLAWYQQKPGQPPKLLIVDASTLESGVPSRFSGSGSGTEFTLTISDLESDNAATYYCQQGYSISDIDNVFGGGTEVVVK
notes: V regions on human Ig constant parts; also called AB27_85
